Results from US20220332804A1 (CSL INNOVATION, published 2022).

Legend:
Test in all cases: SPR, antibody captured, C2 as analyte;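 note: biacore at 37 °C, anti-C2 mAbs held by immobilised goat anti-human IgG, C2 alanine or serine mutants injected, double-referenced sensorgrams fitted to a 1:1 kinetic or steady-state model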
human C2 D282A = target: T1, human C2 D282A (human, UniProt P06681 21-752)
T1 sequence: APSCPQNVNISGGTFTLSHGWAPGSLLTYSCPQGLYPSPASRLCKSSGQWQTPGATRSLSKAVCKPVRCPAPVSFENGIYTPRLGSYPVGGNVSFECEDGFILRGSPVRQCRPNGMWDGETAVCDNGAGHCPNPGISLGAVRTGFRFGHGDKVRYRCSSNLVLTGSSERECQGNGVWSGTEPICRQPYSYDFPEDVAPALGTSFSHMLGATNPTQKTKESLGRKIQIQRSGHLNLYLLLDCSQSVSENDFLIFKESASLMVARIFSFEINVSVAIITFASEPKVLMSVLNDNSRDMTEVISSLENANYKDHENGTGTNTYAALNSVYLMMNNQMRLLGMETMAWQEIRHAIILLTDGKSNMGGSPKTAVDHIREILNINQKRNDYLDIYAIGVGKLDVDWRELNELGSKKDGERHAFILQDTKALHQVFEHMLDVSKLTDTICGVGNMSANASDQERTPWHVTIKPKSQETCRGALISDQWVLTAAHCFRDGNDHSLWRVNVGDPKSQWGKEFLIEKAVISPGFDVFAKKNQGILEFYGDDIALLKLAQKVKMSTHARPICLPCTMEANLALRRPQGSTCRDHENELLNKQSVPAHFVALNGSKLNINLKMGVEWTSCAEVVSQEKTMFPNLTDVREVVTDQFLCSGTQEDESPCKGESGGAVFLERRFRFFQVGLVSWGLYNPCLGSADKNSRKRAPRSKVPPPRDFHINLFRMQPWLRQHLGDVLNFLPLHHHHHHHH

human C2 N380A = target: T2, human C2 N380A (human, UniProt P06681 21-752)
T2 sequence: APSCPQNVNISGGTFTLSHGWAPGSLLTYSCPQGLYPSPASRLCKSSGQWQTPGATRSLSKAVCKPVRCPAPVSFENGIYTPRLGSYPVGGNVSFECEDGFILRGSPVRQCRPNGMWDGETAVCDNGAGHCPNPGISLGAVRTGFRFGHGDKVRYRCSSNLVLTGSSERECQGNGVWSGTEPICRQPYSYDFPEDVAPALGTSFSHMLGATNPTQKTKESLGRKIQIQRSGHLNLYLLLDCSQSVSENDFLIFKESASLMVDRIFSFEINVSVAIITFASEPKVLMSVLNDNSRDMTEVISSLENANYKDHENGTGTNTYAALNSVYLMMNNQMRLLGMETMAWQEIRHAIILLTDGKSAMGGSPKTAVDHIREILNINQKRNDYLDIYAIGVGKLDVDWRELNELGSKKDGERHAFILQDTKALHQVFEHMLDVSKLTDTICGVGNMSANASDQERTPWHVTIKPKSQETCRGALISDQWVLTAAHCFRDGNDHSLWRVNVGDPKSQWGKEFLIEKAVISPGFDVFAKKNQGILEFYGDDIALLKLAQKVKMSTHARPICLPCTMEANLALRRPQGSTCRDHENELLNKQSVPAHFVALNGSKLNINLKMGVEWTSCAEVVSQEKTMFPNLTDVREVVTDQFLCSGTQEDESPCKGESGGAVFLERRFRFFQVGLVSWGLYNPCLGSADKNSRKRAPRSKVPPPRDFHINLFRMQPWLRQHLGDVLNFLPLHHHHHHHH

[1] = target: T3, human complement C2 (wild type) (human, UniProt P06681 21-752)
T3 construct: Full-length human C2 (NP_000054) with C-terminal 8x His tag, secreted from Expi293F cells and purified from the supernatant; also called WT; huC2
T3 sequence: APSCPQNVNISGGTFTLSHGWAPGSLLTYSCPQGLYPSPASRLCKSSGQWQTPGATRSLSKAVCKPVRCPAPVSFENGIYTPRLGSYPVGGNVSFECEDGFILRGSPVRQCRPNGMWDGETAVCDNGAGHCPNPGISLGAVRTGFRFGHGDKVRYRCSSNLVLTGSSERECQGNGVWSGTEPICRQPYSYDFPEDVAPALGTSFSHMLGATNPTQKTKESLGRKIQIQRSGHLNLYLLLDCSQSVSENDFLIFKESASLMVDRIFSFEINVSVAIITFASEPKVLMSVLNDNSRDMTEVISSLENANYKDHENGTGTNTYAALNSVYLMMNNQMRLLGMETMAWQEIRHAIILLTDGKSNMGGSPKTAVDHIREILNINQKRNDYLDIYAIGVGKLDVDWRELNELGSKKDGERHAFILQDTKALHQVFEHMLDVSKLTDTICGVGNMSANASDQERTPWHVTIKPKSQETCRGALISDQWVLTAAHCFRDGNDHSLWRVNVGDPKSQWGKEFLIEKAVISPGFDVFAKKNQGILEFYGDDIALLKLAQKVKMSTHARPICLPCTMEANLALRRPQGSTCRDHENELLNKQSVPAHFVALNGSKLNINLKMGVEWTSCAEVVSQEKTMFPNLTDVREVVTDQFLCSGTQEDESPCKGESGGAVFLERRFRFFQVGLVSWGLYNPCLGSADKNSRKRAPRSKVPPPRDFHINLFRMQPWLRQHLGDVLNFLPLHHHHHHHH

B1: RF16-242 (antibody, human IgG4 S228P, lambda, V domains shown)
VH: EVQLLQSGAEVKKPGESLKISCKGSGYSFTSYWIGWVRQMPGKGLEWMGIIYPGDSDTRYSPSFQGQVTISADKSISTAYLQWSSLKASDTAMYYCARRGHYGDYFDYWGQGTLVTVSS
VL: SYELTQPPSVSVSPGQTARITCSGDALPKKYAYWYHQKSGQAPVLVIYEDRRRPSEIPERFSGSSSGTMATLTITGAQVEDEGVYFCYSRDRAGNQRVFGGGTQLTVLG
notes: pH-dependent anti-C2 antibody from a phage display library
Which results are given for B1?
Kd (human C2 D282A): 8 nM; Kd (human C2 N380A): 10.2 nM; Kd [1]: 7 nM
